What was measured:
[1] = test system: GATA-1 transcription (human GATA-1 promoter); assay: GATA-1 reporter gene assay in HEL cells; assay type: cell-based; details: 10 μg expression plasmid
Protocol: Using 15 μg of pGL3-HSI-IE Pro and 10 μg of a plasmid for the expression of various HDACs or HDAC variants, 8.75×10^6 HEL cells (accession number JCRB0062, JCRB) were transformed by the electroporation method (BIO-RAD, Gene Pulser II, voltage 1750 V, charge 10 μF, 365 μL). After transformation, 2 mL of 10% FBS RPMI 1640 was added, and this mixture was dispensed to a 96-well white plate in a ratio of 50 μL/well. After cultivation under conditions of 37° C., 5% CO2 and saturated humidity for 3 hours, 10% FBS RPMI 1640 medium was added at 50 μL/well. After cultivation under conditions of 37° C., 5% CO2 and saturated humidity for 8 hours, luciferase activity in cells were measured according to the manual of the Bright-Glo Luciferase Assay System, and GATA-1 transcriptional activity was measured using a multi-label counter.
(§1) A mixture of four kinds of HDAC4-targeted siRNA, i.e., siGENE HDAC4 SMARTpool (manufactured by Dharmacon Inc., marketed by B-Bridge international Inc., code number M-003497-00-05), or Non-specific Control Duplex IX (47% GC content) (manufactured by Dharmacon Inc., marketed by B-Bride international Inc., code number D-001206-09-20), and pGL3 IL2 Pro43 were transfected to Jurkat cells by the electroporation method using the same conditions as those mentioned above, and IL-2 transcriptional activity was measured. […]

N-CoR and HDAC3 = assay: Complex forming ability, anti-Flag purification and Western blotting; assay type: binding, human; details: expressed in PEAK Rapid cells; compared to wild-type HDAC4
[2] = test system: IL-2 transcription (human IL-2 promoter); assay: IL-2 reporter gene assay in Jurkat cells; assay type: cell-based
Protocol: To 1 μg of the plasmid pGL3 IL2 Pro43, which has a human IL-2 promoter sequence (the −674 to +54 region in the vicinity of the transcription initiation site) upstream of the firefly luciferase gene, and 6 μg of pRL-TK (Promega), the plasmids for the expression of wild-type HDAC4 or each of HDAC4 dominant negative variants (H802K, H803L, H863L) prepared in Example 3 was mixed in various ratios (1, 3 and 10 μg), and 1×10^7 Jurkat cells (ATCC, TIB-152) were transformed by the electroporation method (BIO-RAD, Gene Pulser II, voltage 300 V, charge 975 μF, 400 μL).
After transformation, 2.5 mL of RPMI 1640 containing 10% FBS (MOREGATE) (10% FBS RPMI 1640) was added, and this mixture was dispensed to a 96-well white plate in a ratio of 50 μL/well. After cultivation under conditions of 37° C., 5% CO2 and saturated humidity for 10 hours, a liquid mixture of Phorbol 12-Myristate 13-Acetate (PMA, SIGMA), Ionomycin (SIGMA) and Anti-CD28 antibody (Pharmingen) in 10% FBS RPMI 1640 was added at 50 μL/well (the final concentrations were 50 ng/mL, 1 μg/mL and 75 ng/mL, respectively) to stimulate the Jurkat cells. After cultivation under conditions of 37° C., 5% CO2 and saturated humidity for 12 hours, luciferase activity in the cells was measured according to the manual of the Bright-Glo Luciferase Assay System (Promega) using a multi-label counter (1420 MULTILABEL COUNTER ARVO SX, WALLAC).
1×10^7 Jurkat cells (ATCC, TIB-152) were transformed with 10 μg of a plasmid for the expression of various HDACs or HDAC variants by the electroporation method (BIO-RAD, Gene Pulser II, voltage 300 V, charge 975 μF, 400 μL). […] After cultivation under conditions of 37° C., 5% CO2 and saturated humidity for 12 hours, luciferase activity in cells were measured according to the manual of the Bright-Glo Luciferase Assay System (Promega), and IL-2 transcriptional activity was measured using a multi-label counter (1420 MULTILABEL COUNTER ARVO SX, WALLAC).
as §1, with “measured. Likewise, siGENE HDAC4 SMARTpool or Non-specific Control Duplex IX, and pGL3-HSI-IE Pro were transfected to HEL cells, and GATA-1 transcriptional activity was measured.” for “measured.”

histone = assay: HDAC activity with [3H]-labeled acetylated histone as a substrate; assay type: biochemical, human; details: expressed in 293T cells, crudely purified; compared to wild-type HDAC4
Protocol: 7 μg of a plasmid for the expression of wild-type HDAC4 and HDAC4 dominant negative variants (H802K, H803L, H863L) was transfected to 293T cells by the calcium phosphate method; 48 hours later, whole cell lysate (cells were disrupted in 25 mM Tris, pH 7.4, 150 mM NaCl, 1 mM CaCl2, 1% Triton X-100, and cell debris was removed by centrifugation) was crudely purified using an anti-Flag antibody column (SIGMA, anti-Flag M2-agarose) (washed with TBS, then eluted with 0.1M Glysine-HCl, pH 3.5), and used for the measurement of HDAC activity. The reaction substrate used was a [^3H]-labeled acetylated histone prepared by cultivating Jurkat cells (2×10^8 cells) in 40 mL of an RPMI (SIGMA) medium containing 300 MBq [^3H] sodium acetate (NENTM Life Science Products, Inc.) for 2 hours, disrupting the cells in Lysis buffer, pH 6.5 (10 mM Tris-HCl, 50 mM Sodium Hydrogen sulfate, 1% Triton X-100, 10 mM MgCl2-6H2O, 8.6% Sucrose), washing the cells with Wash buffer (10 mM Tris-HCl, 13 mM EDTA), and then adding 0.4N H2SO4.

B1: HDAC4 dominant negative variant (H863L): HDAC4 variant with H863L mutation, amino acid sequence SEQ ID NO:6, expressed from plasmid (protein, listed as Homo sapiens)
chain: MSSQSHPDGLSGRDQPVELLNPARVNHMPSTVDVATALPLQVAPSAVPMDLRLDHQFSLPVAEPALREQQLQQELLALKQKQQIQRQILIAEFQRQHEQLSRQHEAQLHEHIKQQQEMLAMKHQQELLEHQRKLERHRQEQELEKQHREQKLQQLKNKEKGKESAVASTEVKMKLQEFVLNKKKALAHRNLNHCISSDPRYWYGKTQHSSLDQSSPPQSGVSTSYNHPVLGMYDAKDDFPLRKTASEPNLKLRSRLKQKVAERRSSPLLRRKDGPVVTALKKRPLDVTDSACSSAPGSGPSSPNNSSGSVSAENGIAPAVPSIPAETSLAHRLVAREGSAAPLPLYTSPSLPNITLGLPATGPSAGTAGQQDTERLTLPALQQRLSLFPGTHLTPYLSTSPLERDGGAAHSPLLQHMVLLEQPPAQAPLVTGLGALPLHAQSLVGADRVSPSIHKLRQHRPLGRTQSAPLPQNAQALQHLVIQQQHQQFLEKHKQQFQQQQLQMNKIIPKPSEPARQPESHPEETEEELREHQALLDEPYLDRLPGQKEAHAQAGVQVKQEPIESDEEEAEPPREVEPGQRQPSEQELLFRQQALLLEQQRIHQLRNYQASMEAAGIPVSFGGHRPLSRAQSSPASATFPVSVQEPPTKPRFTTGLVYDTLMLKHQCTCGSSSSHPEHAGRIQSIWSRLQETGLRGKCECIRGRKATLEELQTVHSEAHTLLYGTNPLNRQKLDSKKLLGSLASVFVRLPCGGVGVDSDTIWNEVHSAGAARLAVGCVVELVFKVATGELKNGFAVVRPPGHHAEESTPMGFCYFNSVAVAAKLLQQRLSVSKILIVDWDVHHGNGTQQAFYSDPSVLYMSLLRYDDGNFFPGSGAPDEVGTGPGVGFNVNMAFTGGLDPPMGDAEYLAAFRTVVMPIASEFAPDVVLVSSGFDAVEGHPTPLGGYNLSARCFGYLTKQLMGLAGGRIVLALEGGHDLTAICDASEACVSALLGNELDPLPEKVLQQRPNANAVRSMEKVMEIHSKYWRCLQRTTSTAGRSLIEAQTCENEEAETVTAMASLSVGVKPAEKRPDEEPMEEEPPL
modifications: Dominant negative mutant (H863L) of human histone deacetylase-4 (HDAC4) gene
[1]
  GATA-1 transcriptional activity (luciferase): GATA-1 transcription suppression was not observed
N-CoR and HDAC3
  HDAC3 and N-CoR in the crudely purified fraction (complex forming ability): contained almost no HDAC3 or N-COR
[2]; Jurkat cells stimulated with PMA, Ionomycin, Anti-CD28 antibody, expression plasmid 1, 3 and 10 μg
  IL-2 transcriptional activity (luciferase): IL-2 transcription suppression depending on the expression level
[2]; Jurkat cells, 10 μg expression plasmid, compared with HDAC1 and HDAC3 variants
  IL-2 transcriptional activity (luciferase): IL-2 transcription suppression was observed
histone
  HDAC activity with histone as a substrate: decreased HDAC activity compared to wild-type HDAC4
